Results taken from PMC6611741 (2019).

Biological target: Bovine serum albumin (Bos taurus (Bovine), UniProt P02769)
Experiment: EGOTFT (SiMoT), BSA-functionalized gate

Sequence of Bovine serum albumin (P02769 25-607): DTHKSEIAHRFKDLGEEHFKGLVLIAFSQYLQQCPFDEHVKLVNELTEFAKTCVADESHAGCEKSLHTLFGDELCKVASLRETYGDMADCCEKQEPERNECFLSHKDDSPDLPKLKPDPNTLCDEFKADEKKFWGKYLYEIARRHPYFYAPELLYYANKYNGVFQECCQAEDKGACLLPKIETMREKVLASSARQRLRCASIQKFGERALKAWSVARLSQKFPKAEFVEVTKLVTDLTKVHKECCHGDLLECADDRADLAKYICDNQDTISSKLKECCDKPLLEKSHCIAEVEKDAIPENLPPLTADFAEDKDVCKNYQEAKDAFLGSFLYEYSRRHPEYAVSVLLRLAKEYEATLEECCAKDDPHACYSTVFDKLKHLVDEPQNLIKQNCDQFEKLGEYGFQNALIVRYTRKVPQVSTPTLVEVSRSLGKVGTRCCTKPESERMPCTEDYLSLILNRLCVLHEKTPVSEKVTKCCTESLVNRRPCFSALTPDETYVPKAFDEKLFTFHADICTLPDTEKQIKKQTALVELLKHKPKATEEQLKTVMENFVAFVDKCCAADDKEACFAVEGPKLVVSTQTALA

binding result: no binding
B1: Human C-reactive protein (protein)
chain: QTDMSRKAFVFPKESDTSYVSLKAPLTKPLKAFTVCLHFYTELSSTRGYSIFSYATKRQDNEILIFWSKDIGYSFTVGGSEILFEVPEVTVAPVHICTSWESASGIVEFWVDGKPRVRKSLKKGYTVGAEASIILGQEQDSFGGNFEGSQSLVGDIGNVNMWDFVLSPDEINTIYLGGPFSPNVLNWRALKYEVQGEVFTKPQLWP
